Literature values, collected in paper PMC3209554.

Molecular target: ClpX N domain (Escherichia coli) (UniProt P0A6H1)
Chain of UniProt P0A6H1 (P0A6H1 2-56): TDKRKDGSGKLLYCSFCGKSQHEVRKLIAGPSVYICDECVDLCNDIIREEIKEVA

Kd: 20 µM
Substance: SspB C-terminal tail (from UniProt P0AFZ3)
